Data reported in publication PMC5376091.

Target: wild type (WT) Aβ40 peptide (human)

For Aβ40 A2V variant, full-length (peptide), the ThT fibrillization of 25 μM WT Aβ40 co-incubated with full-length A2V (WT to A2V 1 to 1 and 1 to 2): shortening of the lag time was 6 h and the ThT signal at the final plateau of 25 μM WT Aβ40 mixed with two fold full-length A2V, against WT alone was 40%.

Aβ40 A2T variant, full-length (peptide) was tested, and the ThT fibrillization of 25 μM WT Aβ40 co-incubated with full-length A2T (WT to A2T 1 to 1 and 1 to 2): extension of the lag phase was 8 h.

Molecule A2V NTF(1–10) (peptide) has a ThT fibrillization of 25 μM WT Aβ40 co-incubated with A2V NTF(1–10) (1 to 1 and 1 to 6): shortening of the lag phase of 8 h and a ThT signal of the end-point product of 25 μM WT Aβ40 with A2V NTF(1–10) (1 fold and 6 fold), against WT only of 22%.

B1: A2T NTF(1–10) (peptide)
chain: DTEFRHDSYG
In the case of B1, the ThT fibrillization of 25 μM WT Aβ40 co-incubated with A2T NTF(1–10) (1 to 1 and 1 to 6): decrease of the ThT plateau is reported as 20%.
